From patent US20240066061A1 come the findings set out here.

For the assay, the target named is chemokine receptor CXCR3 (human) (UniProt P49682). Briefly: cell-based or functional assay.
Sequence of UniProt P49682 (P49682 whole entry): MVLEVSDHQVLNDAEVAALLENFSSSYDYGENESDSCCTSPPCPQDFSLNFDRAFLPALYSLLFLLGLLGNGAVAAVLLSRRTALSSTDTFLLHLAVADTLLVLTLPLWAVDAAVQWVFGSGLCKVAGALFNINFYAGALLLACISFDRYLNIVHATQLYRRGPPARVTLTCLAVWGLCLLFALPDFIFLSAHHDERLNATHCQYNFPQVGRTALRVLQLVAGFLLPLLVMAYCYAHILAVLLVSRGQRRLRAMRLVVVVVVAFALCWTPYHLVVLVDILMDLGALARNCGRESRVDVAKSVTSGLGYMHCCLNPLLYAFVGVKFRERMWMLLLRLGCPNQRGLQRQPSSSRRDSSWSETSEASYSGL

“CXCL10 (from UniProt P02778 22-98) (ligand)” came in with a chemokine concentration at maximum cell migration of CD8+ TSCM of 100 ng/mL and a chemotactic index, in-vitro transwell migration of human T cells of 2.

B1: CXCL9 (ligand, UniProt Q07325 23-125, looked up)
chain: TPVVRKGRCSCISTNQGTIHLQSLKDLKQFAPSPSCEKIEIIATLKNGVQTCLNPDSADVKELIKKWEKQVSQKKKQKNGKKHQKKKVLKVRKSQRSRQKKTT
In the case of B1, the chemokine concentration at maximum cell migration of CD8+ TSCM came to 100 ng/mL and the chemotactic index, in-vitro transwell migration of human T cells amounted to 2.

B2: CXCL11 (ligand, UniProt O14625 22-94, looked up)
chain: FPMFKRGRCLCIGPGVKAVKVADIEKASIMYPSNNCDKIEVIITLKENKGQRCLNPKSKQARLIIKKVERKNF
In turn, B2 came in with a chemokine concentration at maximum cell migration of CD8+ TSCM of 100 ng/mL; a chemotactic index, in-vitro transwell migration of human T cells of 2; a fold enrichment of CXCR3+ cells after 21 days stimulation with CMV epitopes and CXCL11 of 10000 fold.
